Test results published in US20240327538A1 (AMUNIX PHARMACEUTICALS, published 2024).
Each block holds one binder with its values, some of them ahead of it.

Tests used:
Human CD3 = target: T1, Human CD3 (human, UniProt P07766 23-126); test: BLI or SPR
T1 construct: not shown: A CD3 delta partner cannot be excluded

Cyno CD3 = target: T2, Cyno CD3 (cynomolgus monkey, UniProt Q95LI5 22-117); test: BLI or SPR
T2 construct: also called cynomolgus monkey CD3; not shown: A CD3 delta partner cannot be excluded
T2 sequence: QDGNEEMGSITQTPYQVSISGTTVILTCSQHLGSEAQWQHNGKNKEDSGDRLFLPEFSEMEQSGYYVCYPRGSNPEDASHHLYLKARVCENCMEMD

human PSMA [1] = target: T3, human PSMA (human, UniProt Q04609 44-750, limits assumed); test: BLI or SPR
T3 construct: also called huPSMA
Excerpt: The values are reported below in Table 19 for PSMA and Table 20 for CD3.

[2] = target: T4, hPSMA antigen (with an added HHHHHH sequence) (human, UniProt Q04609 44-750); test: in vitro screening of VHH from immunized llamas
T4 construct: also called human PSMA (hPSMA)

human PSMA-Fc [3] = target: T5, human PSMA-Fc (human, UniProt Q04609 44-750, limits assumed); test: linker length / domain swap comparison
T5 construct: also called Human PSMA-Fc fusions; not shown: Fc part

human PSMA-Fc [4] = target: T5, human PSMA-Fc; test: Octet
cynomolgus monkey PSMA = target: T6, cynomolgus monkey PSMA (cynomolgus monkey, UniProt A0A2K5VNZ0 44-750); test: Octet
T6 construct: also called cyPSMA; Cyno PSMA

human PSMA [5] = target: T3, human PSMA; test: Octet
[6] = target: T7, cynomolgus monkey CD3 epsilon (cynomolgus monkey, UniProt Q95LI5 22-117, limits assumed); test: Octet
T7 construct: also called cyCD3e
T7 sequence (looked up): T2 sequence

human CD3 epsilon = target: T8, human CD3 epsilon (human, UniProt P07766 23-126, limits assumed); test: Octet
T8 construct: also called huCD3e

human PSMA-Fc [7] = target: T5, human PSMA-Fc; test: Octet, human PSMA-Fc
Method: Binding affinity of select PSMA PTE variants was tested by Octet.

T5 sequence (Q04609 44-750 limits assumed): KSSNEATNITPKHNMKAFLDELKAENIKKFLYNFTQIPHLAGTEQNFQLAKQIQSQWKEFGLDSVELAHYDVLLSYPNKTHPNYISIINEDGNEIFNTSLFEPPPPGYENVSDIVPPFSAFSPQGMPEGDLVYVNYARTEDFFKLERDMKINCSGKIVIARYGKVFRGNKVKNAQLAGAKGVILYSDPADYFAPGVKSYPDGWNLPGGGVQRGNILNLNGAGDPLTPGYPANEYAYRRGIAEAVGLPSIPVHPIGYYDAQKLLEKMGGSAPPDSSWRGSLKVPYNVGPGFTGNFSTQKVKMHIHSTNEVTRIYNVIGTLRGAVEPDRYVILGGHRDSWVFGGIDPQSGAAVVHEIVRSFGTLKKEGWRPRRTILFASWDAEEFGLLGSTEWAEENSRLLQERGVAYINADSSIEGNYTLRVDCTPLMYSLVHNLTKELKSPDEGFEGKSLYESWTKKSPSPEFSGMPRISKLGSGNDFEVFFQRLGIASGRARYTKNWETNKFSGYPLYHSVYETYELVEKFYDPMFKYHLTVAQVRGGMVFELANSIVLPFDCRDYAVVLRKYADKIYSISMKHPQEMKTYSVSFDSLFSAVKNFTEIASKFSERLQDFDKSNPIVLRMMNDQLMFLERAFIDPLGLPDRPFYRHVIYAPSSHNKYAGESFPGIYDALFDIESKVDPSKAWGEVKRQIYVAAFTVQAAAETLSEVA
T4 sequence (Q04609 other isoform, or with tags, fused parts or gaps limits assumed): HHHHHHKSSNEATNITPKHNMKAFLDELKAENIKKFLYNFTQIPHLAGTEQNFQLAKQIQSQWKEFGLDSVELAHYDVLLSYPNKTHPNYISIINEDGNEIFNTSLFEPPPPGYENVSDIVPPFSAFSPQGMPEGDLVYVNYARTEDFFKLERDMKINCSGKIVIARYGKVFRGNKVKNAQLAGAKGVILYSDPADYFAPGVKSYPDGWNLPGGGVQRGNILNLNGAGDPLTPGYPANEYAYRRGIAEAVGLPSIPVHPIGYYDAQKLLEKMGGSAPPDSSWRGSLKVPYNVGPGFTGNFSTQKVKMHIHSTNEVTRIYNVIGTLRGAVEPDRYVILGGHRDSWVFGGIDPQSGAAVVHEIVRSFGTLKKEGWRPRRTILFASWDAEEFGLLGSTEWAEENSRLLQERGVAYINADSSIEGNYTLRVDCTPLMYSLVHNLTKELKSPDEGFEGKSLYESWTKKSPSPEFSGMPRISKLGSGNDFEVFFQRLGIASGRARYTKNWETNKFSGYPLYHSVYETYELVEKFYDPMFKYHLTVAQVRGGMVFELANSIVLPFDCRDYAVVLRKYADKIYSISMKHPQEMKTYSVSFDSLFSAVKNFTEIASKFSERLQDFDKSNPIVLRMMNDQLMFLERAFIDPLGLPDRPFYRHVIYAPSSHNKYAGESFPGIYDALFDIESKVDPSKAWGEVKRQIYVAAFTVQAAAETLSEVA
T3 sequence (Q04609 44-750 limits assumed): as the sequence (Q04609 44-750 limits assumed) above
T1 sequence (P07766 23-126 limits assumed): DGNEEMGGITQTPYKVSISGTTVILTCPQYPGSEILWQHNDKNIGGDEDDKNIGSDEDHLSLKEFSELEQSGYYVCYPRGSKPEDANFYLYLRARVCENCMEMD
T8 sequence (P07766 23-126 limits assumed): as above

Kd (Human CD3): 34.4 nM
Kd (Cyno CD3): 26.7 nM
Kd (human PSMA [1]): 353 nM
B1: AMX-500(1x-C) (bispecific antibody)
chain: ASSATPESGPGTSTEPSEGSAPGTSESATPESGPGSGPGTSESATPGTSESATPESGPGSEPATSGSETPGTSESATPESGPGTSTEPSEGSAPGSPAGSPTSTEEGTSESATPESGPGSEPATSGSETPGTSESATPESGPGSPAGSPTSTEEGSPAGSPTSTEEGTSTEPSEGSAPGTSESATPESGPGTSESATPESGPGTSESATPESGPGSEPATSGSETPGSEPATSGSETPGSPAGSPTSTEEGTSTEPSEGSAPGTSTEPSEGSAPGSEPATSGSETPGTSESATPEAGRSASHTPAGLTGPGTSESATPESQVQLVESGGGVVQPGRSLRLSCAASGRTFGIYVWGWFRQAPGKEREFVGAMSWSGSNRKVSDSVKGRFTISRDNSKNTLYLQMNSLRAEDTAVYYCAASNKEYGRTWYDFNESDYWGQGTQVTVSSGGGGSGGGSELVVTQEPSLTVSPGGTVTLTCRSSNGAVTSSNYANWVQQKPGQAPRGLIGGTNKRAPGTPARFSGSLLGGKAALTLSGVQPEDEAVYYCALWYPNLWVFGGGTKLTVLSESATPESGPGTSPGATPESGPGTSESATPEVQLVESGGGIVQPGGSLRLSCAASGFTFSTYAMNWVRQAPGKGLEWVGRIRTKRNNYATYYADSVKGRFTISRDDSKNTVYLQMNSLKTEDTAVYYCVRHENFGNSYVSWFAHWGQGTLVTVSSGTATPESGPGEAGRSASHTPAGLTGPATPESGPGTSESATPESGPGSPAGSPTSTEEGTSESATPESGPGSEPATSGSETPGTSESATPESGPGTSTEPSEGSAPGTSTEPSEGSAPGTSTEPSEGSAPGTSTEPSEGSAPGTSTEPSEGSAPGTSTEPSEGSAPGSPAGSPTSTEEGTSTEPSEGSAPGTSESATPESGPGSEPATSGSETPGTSESATPESGPGSEPATSGSETPGTSESATPESGPGTSTEPSEGSAPGTSESATPESGPGSPAGSPTSTEEGSPAGSPTSTEEGSPAGSPTSTEEGTSESATPESGPGTSTEPSEGSAPGTSESATPESGPGSEPATSGSETPGTSESATPESGPGSEPATSGSETPGTSESATPESGPGTSTEPSEGSAPGSPAGSPTSTEEGTSESATPESGPGSEPATSGSETPGTSESATPESGPGSPAGSPTSTEEGSPAGSPTSTEEGTSTEPSEGSAPGTSESATPESGPGTSESATPESGPGTSPSATPESGPGSEPATSGSETPGSEPATSGSETPGSPAGSPTSTEEGTSTEPSEGSAPGTSTEPSEGSAPGSEPATSGSETPGTSESAGEPEA

binding result [2]: binds
B2: CB01A01R3 (VHH)
VHH: EVQLVESGGGLVQAGGSLRISCTASERSVSTYTKGWFRQAPGKERHLVAAISYNGDTTYYSDSVKGRFTISRDNVKNTVNLQMNSLKPEDTAVYFCAARGSSWLYGTWDDYHYWGQGTQVTVSS

binding result [2]: binds
B3: P01C01R3 (VHH)
VHH: QVQLVESGGGLVQAGGSLRLSCAASGRTVNSYAMGWFRQAPGKEREFVASQSWMGAITYDADYADSVKGRFTISRDNAKNTLYLQMNSLKPEDTAVYRCAASRQARPGLHVREYDVWGQGTQVTVSS

Kd (human PSMA-Fc [3]): 2.1 nM
koff (human PSMA-Fc [3]): 0.00022 s⁻¹
kon (human PSMA-Fc [3]): 110000 M⁻¹ s⁻¹
Kd (human PSMA-Fc [4]): 2.1 nM
B4: uTCE of AC3353 (bispecific antibody)
chain: LTGPATSGSETPGTQVQLVESGGGVVQPGRSLRLSCAASGRTFGIYVMGWVRQAPGKEREFVAAISWSGSNRLVSDSVKGRFTISRDNSKNTLYLQMNSLRAEDTAVYYCAASNRLYGRTWYDFNESDYWGQGTQVTVSSGGGGSELVVTQEPSLTVSPGGTVTLTCRSSNGAVTSSNYANWVQQKPGQAPRGLIGGTNKRAPGTPARFSGSLLGGKAALTLSGVQPEDEAVYYCALWYPNLWVFGGGTKLTVLGATPPETGAETESPGETTGGSAESEPPGEGEVQLLESGGGIVQPGGSLKLSCAASGFTFNTYAMNWVRQAPGKGLEWVARIRSKYNNYATYYADSVKDRFTISRDDSKNTVYLQMNNLKTEDTAVYYCVRHENFGNSYVSWFAHWGQGTLVTVSSGTAEAASASGEAGRSANHTPAG
notes: unmasked TCE of this paTCE; 5-residue VHH-scFv linker; also called PSMA.5 (5 mer)

binding result [2]: binds
B5: P01G03R3 (VHH)
VHH: EVQLVESGGGLVQAGGSLRLSCVVSGIAFSPYHMAWYRQAPGKQHEWVAVITTGGTTAYNETVEGRFSISRDNARSTVYLQMNSLKPEDTAVYYCNIYGLSLKWGQGTQVTVSS

binding result [2]: binds
B6: P01E02R3 (VHH)
VHH: EVQLVESGGGLVQAGGSLKLSCVANGPTFSTYAMAWFRQAPGKEHEFVAAITGDGDTTNNADSVKGRFTISRDNAKNRVYLQLNSLKPEDTAAYYCAAGVHHTYTIPRLWLYWGQGTQVTVSS

binding result [2]: binds
B7: CB01B02R3 (VHH)
VHH: QVQLVESGGGLVQAGDSLRLSCVTSGRTFDVYAMGWFRQAPGKERELVAAINWSGSNKFHADSVKGRFTISRDNAWKTLSLQMNSLKPEDTAVYFCAASTRLYGTTWYEFNDSDYWGQGTQVTVSS
notes: also called PSMA.3

Kd (cynomolgus monkey PSMA): 47.5 nM
Kd (human PSMA [5]): 6.2 nM
Kd [6]: 40 nM
Kd (human CD3 epsilon): 34.8 nM
B8: uTCE from AC3445 (bispecific antibody)
chain: LTGPGTSESATPESQVQLVESGGGVVQPGRSLRLSCAASGRTFGIYVMGWVRQAPGKEREFVAAISWSGSNRKVSDSVKGRFTISRDNSKNTLYLQMNSLRAEDTAVYYCAASNRLYGRTWYDFNESDYWGQGTQVTVSSGGGGSGGGSELVVTQEPSLTVSPGGTVTLTCRSSNGAVTSSNYANWVQQKPGQAPRGLIGGTNKRAPGTPARFSGSLLGGKAALTLSGVQPEDEAVYYCALWYPNLWVFGGGTKLTVLSESATPESGPGTSPGATPESGPGTSESATPEVQLLESGGGIVQPGGSLKLSCAASGFTFNTYAMNWVRQAPGKGLEWVARIRSKYNNYATYYADSVKDRFTISRDDSKNTVYLQMNNLKTEDTAVYYCVRHENFGNSYVSWFAHWGQGTLVTVSSGTATPESGPGEAGRSANHTPAG
notes: unmasked TCE released from this paTCE; also called PSMA.119-CD3.23 uTCE

Kd (human PSMA-Fc [3]): 2.4 nM
koff (human PSMA-Fc [3]): 0.00018 s⁻¹
kon (human PSMA-Fc [3]): 76000 M⁻¹ s⁻¹
Kd (human PSMA-Fc [4]): 2.4 nM
B9: uTCE of AC3356 (bispecific antibody)
chain: LTGPATSGSETPGTQVQLVESGGGVVQPGRSLRLSCAASGRTFGIYVMGWVRQAPGKEREFVAAISWSGSNRLVSDSVKGRFTISRDNSKNTLYLQMNSLRAEDTAVYYCAASNRLYGRTWYDFNESDYWGQGTQVTVSSGGGGSGGGSEVQLLESGGGIVQPGGSLKLSCAASGFTFNTYAMNWVRQAPGKGLEWVARIRSKYNNYATYYADSVKDRFTISRDDSKNTVYLQMNNLKTEDTAVYYCVRHENFGNSYVSWFAHWGQGTLVTVSSGATPPETGAETESPGETTGGSAESEPPGEGELVVTQEPSLTVSPGGTVTLTCRSSNGAVTSSNYANWVQQKPGQAPRGLIGGTNKRAPGTPARFSGSLLGGKAALTLSGVQPEDEAVYYCALWYPNLWVFGGGTKLTVLGTAEAASASGEAGRSANHTPAG
notes: unmasked TCE of this paTCE; CD3.23 in VH-VL order; also called PSMA.5 (domain swap)

Kd (human PSMA-Fc [3]): 3.5 nM
koff (human PSMA-Fc [3]): 0.00027 s⁻¹
kon (human PSMA-Fc [3]): 77000 M⁻¹ s⁻¹
Kd (human PSMA-Fc [4]): 3.5 nM
B10: uTCE of AC3354 (bispecific antibody)
chain: LTGPATSGSETPGTQVQLVESGGGVVQPGRSLRLSCAASGRTFGIYVMGWVRQAPGKEREFVAAISWSGSNRLVSDSVKGRFTISRDNSKNTLYLQMNSLRAEDTAVYYCAASNRLYGRTWYDFNESDYWGQGTQVTVSSGATPPETGAETESPGELVVTQEPSLTVSPGGTVTLTCRSSNGAVTSSNYANWVQQKPGQAPRGLIGGTNKRAPGTPARFSGSLLGGKAALTLSGVQPEDEAVYYCALWYPNLWVFGGGTKLTVLGATPPETGAETESPGETTGGSAESEPPGEGEVQLLESGGGIVQPGGSLKLSCAASGFTFNTYAMNWVRQAPGKGLEWVARIRSKYNNYATYYADSVKDRFTISRDDSKNTVYLQMNNLKTEDTAVYYCVRHENFGNSYVSWFAHWGQGTLVTVSSGTAEAASASGEAGRSANHTPAG
notes: unmasked TCE of this paTCE; 15-residue VHH-scFv linker; also called PSMA.5 (15 mer)

binding result [2]: binds
B11: CB01H01R3 (VHH)
VHH: EVQLVESGGGSVQAGGSLSLSCVASGRTFGIYVMGWFRQAPGKEREFVAAISWSGSNRLVSDSVKGRFTISRENAKNTIYLQMNGLKPEDTANYFCAASNRLYGRTWYDFNESDYWGQGTQVTVSS
notes: also called PSMA.2

Kd (human PSMA-Fc [7]): 5.6 nM
koff (human PSMA-Fc [7]): 0.000479 s⁻¹
kon (human PSMA-Fc [7]): 86600 M⁻¹ s⁻¹
Kd (human PSMA-Fc [4]): 5.6 nM
B12: uTCE of AC3342 (bispecific antibody, V domains shown)
VH: QVQLVESGGGVVQPGRSLRLSCAASGRTFGIYVMGWVRQAPGKEREFVAAISWSGSNRLVSDSVKGRFTISRDNSKNTLYLQMNSLRAEDTAVYYCAASNKLYGRTWYDFNESDYWGQGTQVTVSS
notes: VHH in uTCE with CD3.23 scFv (VL-VH), 9-residue linker; also called PSMA.132; R101K
